Results on ten molecules are retold here after PMC8556268 (Communications Biology, 2021).

Where “and” joins values, the source holds several entries; their conditions need not be identical. Identical values can stand only once.

Common to all, as to conditions: both partners purified
The target of test [1] is T1, SARS-CoV-2 spike protein receptor-binding domain (RBD) (SARS-CoV-2, strain  …, UniProt P0DTC2).
T1 construct: also called SARS-CoV-2 RBD; SARS RBD; source: provided by Roland Strong, Fred Hutchinson Cancer Research Center
The test can be described thus: ELISA.

Test [2] addresses T2, SARS-CoV-2 spike protein receptor-binding domain (RBD), coated on ELISA plates (SARS-CoV-2, strain  …, UniProt P0DTC2).
T2 construct: also called SARS-CoV-2 RBD; SARS-CoV2 RBD; source: provided (Roland Strong, Fred Hutchinson Cancer Research Center)
As to the kind of experiment: ELISA.

Test [3] deals with enzymatically biotinylated SARS-CoV-2 RBD, loaded on streptavidin biosensors (SARS-CoV-2, strain  …, UniProt P0DTC2).
The target of test [4] is enzymatically biotinylated SARS-CoV-2 spike protein receptor-binding domain (RBD) (SARS-CoV-2, strain  …, UniProt P0DTC2).

B1: tcTRP9_(3)-VHH678_(3) (VHH)
VHH: QVQLQESGGGLVQAGGSLRLSCAASGRTFSEYAMGWFRQAPGKEREFVATISWSGGSTYYTRSVKGRFTISRDNAKNTVYLQMNSLKPDDTAVYYCAAAGLGTVVSEWDYDYDYWGQGTQVTVSS
notes: also called tcTRP9x3_VHH6783; construct 678; source: E. coli BL21(DE3)-RIL, purified (Ni-NTA, dialysis into 1x PBS)
In test [1], B1 registered a 50% effective concentration (EC50) of 2.06 nM.

B2: tcTRP9_(3)-VHH3 construct 680 (trimeric tcTRP9_(3) with VHH 72D61R on each subunit) (VHH)
VHH: QVQLQESGGGLVQAGGSLRLSCAASGRTFSEYAMGWFRQAPGKEREFVATISWSGGSTYYTRSVKGRFTISRDNAKNTVYLQMNSLKPDDTAVYYCAAAGLGTVVSEWDYDYDYWGQGTQVTVSS
notes: also called tcTRP9x3-VHH3; Trimeric VHH 72D61R; source: E. coli, purified (Ni-NTA, dialysis into 1x PBS)
Take B2: in test [2], the response was half-maximal at 12 nM (EC50).

B3: tcTRP9_(3)-VHH679_(3) (VHH)
VHH: QVQLQESGGGLVQAGGSLRLSCAASGRTFSEYAMGWFRQAPGKEREFVATISWSGGSTYYTRSVKGRFTISRDNAKNTVYLQMNSLKPDDTAVYYCAAAGLGTVVSEWDYDYDYWGQGTQVTVSS
notes: also called tcTRP9x3_VHH6793; construct 679; source: E. coli BL21(DE3)-RIL, purified (Ni-NTA, dialysis into 1x PBS)
Take B3: the response in test [1] was half-maximal at 5.52 nM (EC50).

B4: tcTRP9_(3)-VHH681_(3) (trimeric tcTRP9_(3) with VHH 72D61R on each subunit, construct 681) (VHH)
VHH: QVQLQESGGGLVQAGGSLRLSCAASGRTFSEYAMGWFRQAPGKEREFVATISWSGGSTYYTRSVKGRFTISRDNAKNTVYLQMNSLKPDDTAVYYCAAAGLGTVVSEWDYDYDYWGQGTQVTVSS
notes: also called tcTRP9_(3)-VHH3; tcTRP9x3-VHH3; source: E. coli, purified (Ni-NTA, dialysis into 1x PBS)
With B4, in test [2], the EC50 was 0.4 nM and ~0.64 nM. Also, the Kd in test [3] was ~0.43 nM.

B5: tcTRP9_(3)-VHH680_(3) (VHH)
VHH: QVQLQESGGGLVQAGGSLRLSCAASGRTFSEYAMGWFRQAPGKEREFVATISWSGGSTYYTRSVKGRFTISRDNAKNTVYLQMNSLKPDDTAVYYCAAAGLGTVVSEWDYDYDYWGQGTQVTVSS
notes: also called tcTRP9x3_VHH6803; construct 680; source: E. coli BL21(DE3)-RIL, purified (Ni-NTA, dialysis into 1x PBS)
With B5, in test [1], the concentration for a half-maximal effect (EC50) was 8.01 nM.

B6: tcTRP9_(3)-VHH682_(3) (VHH)
VHH: QVQLQESGGGLVQAGGSLRLSCAASGRTFSEYAMGWFRQAPGKEREFVATISWSGGSTYYTRSVKGRFTISRDNAKNTVYLQMNSLKPDDTAVYYCAAAGLGTVVSEWDYDYDYWGQGTQVTVSS
notes: also called tcTRP9x3_VHH6823; construct 682; source: E. coli BL21(DE3)-RIL, purified (Ni-NTA, dialysis into 1x PBS)
With B6, the EC50 in test [1] stood at 4.65 nM.

B7: tcTRP9x3_VHH685_(3) (VHH)
VHH: QVQLQESGGGLVQAGGSLRLSCAASGRTFSEYAMGWFRQAPGKEREFVATISWSGGSTYYTRSVKGRFTISRDNAKNTVYLQMNSLKPDDTAVYYCAAAGLGTVVSEWDYDYDYWGQGTQVTVSS
notes: also called construct 685; source: E. coli BL21(DE3)-RIL, purified (Ni-NTA, dialysis into 1x PBS)
B7 gave a concentration for a half-maximal effect (EC50) in test [1] of 1.88 nM.

B8: tcTRP9_(3)-VHH683_(3) (VHH)
VHH: QVQLQESGGGLVQAGGSLRLSCAASGRTFSEYAMGWFRQAPGKEREFVATISWSGGSTYYTRSVKGRFTISRDNAKNTVYLQMNSLKPDDTAVYYCAAAGLGTVVSEWDYDYDYWGQGTQVTVSS
notes: also called tcTRP9x3_VHH6833; construct 683; source: E. coli BL21(DE3)-RIL, purified (Ni-NTA, dialysis into 1x PBS)
B8: in test [1], the response was half-maximal at 2.69 nM (EC50).

B9: tcTRP9_(3)-VHH681_(3) (VHH)
VHH: QVQLQESGGGLVQAGGSLRLSCAASGRTFSEYAMGWFRQAPGKEREFVATISWSGGSTYYTRSVKGRFTISRDNAKNTVYLQMNSLKPDDTAVYYCAAAGLGTVVSEWDYDYDYWGQGTQVTVSS
notes: also called tcTRP9x3_VHH6813; construct 681; source: E. coli BL21(DE3)-RIL, purified (Ni-NTA, dialysis into 1x PBS)
Take B9: the koff in test [4] was 3.98e-05 s⁻¹.

B10: tcTRP9_(3)-VHH684_(3) (VHH)
VHH: QVQLQESGGGLVQAGGSLRLSCAASGRTFSEYAMGWFRQAPGKEREFVATISWSGGSTYYTRSVKGRFTISRDNAKNTVYLQMNSLKPDDTAVYYCAAAGLGTVVSEWDYDYDYWGQGTQVTVSS
notes: also called tcTRP9x3_VHH6843; construct 684; source: E. coli BL21(DE3)-RIL, purified (Ni-NTA, dialysis into 1x PBS)
Molecule B10 gave an EC50 in test [1] of 1.89 nM. In other words, the single-digit nanomolar range.
